{"source": "patent US20160237119A1", "about": "(UNIVERSITY OF TOKYO, published 2016)", "binders": {"B1": {"name": "D4-3NMe (peptide)", "peptide": "{CH2CO}-YRQFN[NMeR]RTHEVWNLD[NMeC]G", "modifications": "thioether N-16", "notes": "also called NMe (N6 + N16); N-methylated D4-3"}, "B2": {"name": "D4-3scr (peptide)", "peptide": "{CH2CO}-YERVNHLFRNQTWDRCG", "modifications": "thioether N-16", "notes": "Negative control; also called negative control peptide"}, "B3": {"name": "D4-3 dimeric peptide, linker BMH (peptide)", "peptide": "{CH2CO}-YRQFNRRTHEVWNLDCGC(BMH′)", "modifications": "thioether N-16; not fully specified (residue 1); also: dimer: two copies joined by BMH at Cys18", "notes": "Two macrocyclic peptides joined through their C-terminal Cys by BMH; also called D4-3 BMH"}, "B4": {"name": "D4-3 dimeric peptide, linker Bis-MAL-PEG3 (peptide)", "peptide": "{CH2CO}-YRQFNRRTHEVWNLDCGC(Bis‑MAL‑PEG3)", "modifications": "thioether N-16; not fully specified (residue 1); also: dimer: two copies joined by Bis-MAL-PEG3 at Cys18", "notes": "Two macrocyclic peptides joined through their C-terminal Cys by Bis-MAL-PEG3; also called D4-3 Bis-MAL-PEG3"}, "B5": {"name": "D4-3 dimeric peptide, linker Bis-MAL-PEG11 (peptide)", "peptide": "{CH2CO}-YRQFNRRTHEVWNLDCGC(Bis‑MAL‑PEG11)", "modifications": "thioether N-16; not fully specified (residue 1); also: dimer: two copies joined by Bis-MAL-PEG11 at Cys18", "notes": "Two macrocyclic peptides joined through their C-terminal Cys by Bis-MAL-PEG11; also called D4-3 Bis-MAL-PEG11"}, "B6": {"name": "D5-4 dimeric peptide, linker BMH (peptide)", "peptide 1": "[dY]WYYAWDQTYKAFPCG", "peptide 2": "[dY]WYYAWDQTYKAFPCG", "modifications": "thioether I:N-I:15, II:N-II:15 via Ac; not fully specified (N-terminus, bridges); also: dimer: two copies joined by BMH through an added C-terminal Cys (handle not in letters)", "notes": "Two macrocyclic peptides joined through their C-terminal Cys by BMH; also called D5-4 BMH; not shown: C-terminal handle of each copy (spacer residue plus Cys)"}, "B7": {"name": "D5-4 dimeric peptide, linker Bis-MAL-PEG3 (peptide)", "peptide 1": "[dY]WYYAWDQTYKAFPCG", "peptide 2": "[dY]WYYAWDQTYKAFPCG", "modifications": "thioether I:N-I:15, II:N-II:15 via Ac; not fully specified (N-terminus, bridges); also: dimer: two copies joined by Bis-MAL-PEG3 through an added C-terminal Cys (handle not in letters)", "notes": "Two macrocyclic peptides joined through their C-terminal Cys by Bis-MAL-PEG3; also called D5-4 Bis-MAL-PEG3; not shown: C-terminal handle of each copy (spacer residue plus Cys)"}, "B8": {"name": "D5-4 dimeric peptide, linker Bis-MAL-PEG11 (peptide)", "peptide 1": "[dY]WYYAWDQTYKAFPCG", "peptide 2": "[dY]WYYAWDQTYKAFPCG", "modifications": "thioether I:N-I:15, II:N-II:15 via Ac; not fully specified (N-terminus, bridges); also: dimer: two copies joined by Bis-MAL-PEG11 through an added C-terminal Cys (handle not in letters)", "notes": "Two macrocyclic peptides joined through their C-terminal Cys by Bis-MAL-PEG11; also called D5-4 Bis-MAL-PEG11; not shown: C-terminal handle of each copy (spacer residue plus Cys)"}, "B9": {"name": "D4-3NMe dimeric peptide, linker Bis-MAL-PEG11 (peptide)", "peptide": "{CH2CO}-YRQFN[NMeR]RTHEVWNLD[NMeC]GC(Bis‑MAL‑PEG11)", "modifications": "thioether N-16; also: dimer via Bis-MAL-PEG11", "notes": "also called D4-3NMe Bis-MAL-PEG11; dimerized N-methylated D4-3 peptide"}, "B10": {"name": "D4-3scr dimeric peptide, linker BMH (peptide)", "peptide": "{CH2CO}-YERVNHLFRNQTWDRCGC(BMH′)", "modifications": "thioether N-16; also: dimer: two copies joined by BMH at Cys18", "notes": "Negative control dimer; also called D4-3scr BMH"}, "B11": {"name": "N14, N-methylated D4-3 peptide (peptide)", "peptide": "{CH2CO}-YRQFNRRTHEVWNLDCG", "modifications": "thioether N-16; not fully specified (residues 1, 14); also: one N-methylated residue, position given only by label N14"}}, "note": "Bridges are numbered along the chain shown (N, C = ends). Roman numbers before positions name the chains, in order. Primed or numbered codes have the meaning given here. Where no end group is shown, it is not given here. [ ]: non-standard residue; d: D form. NMeW = CN[C@@H](Cc1c[nH]c2ccccc12)C(=O)O; NMeR = CN[C@@H](CCCNC(=N)N)C(=O)O; NMeF = CN[C@@H](Cc1ccccc1)C(=O)O; NMeT = CN[C@H](C(=O)O)[C@@H](C)O; NMeE = CN[C@@H](CCC(=O)O)C(=O)O; NMeQ = CN[C@@H](CCC(N)=O)C(=O)O; NMeD = CN[C@@H](CC(=O)O)C(=O)O; NMeN = CN[C@@H](CC(N)=O)C(=O)O; NMeV = CN[C@H](C(=O)O)C(C)C; NMeC = CN[C@@H](CS)C(=O)O; BMH′ = not defined here"}
{"target": "T1, c-Met-Fc chimera protein (UniProt P08581 25-932, limits assumed)", "T1 construct": "Captured on the SPR chip by an anti-IgG antibody; not shown: Fc part", "T1 sequence (P08581 25-932 limits assumed, change not shown)": "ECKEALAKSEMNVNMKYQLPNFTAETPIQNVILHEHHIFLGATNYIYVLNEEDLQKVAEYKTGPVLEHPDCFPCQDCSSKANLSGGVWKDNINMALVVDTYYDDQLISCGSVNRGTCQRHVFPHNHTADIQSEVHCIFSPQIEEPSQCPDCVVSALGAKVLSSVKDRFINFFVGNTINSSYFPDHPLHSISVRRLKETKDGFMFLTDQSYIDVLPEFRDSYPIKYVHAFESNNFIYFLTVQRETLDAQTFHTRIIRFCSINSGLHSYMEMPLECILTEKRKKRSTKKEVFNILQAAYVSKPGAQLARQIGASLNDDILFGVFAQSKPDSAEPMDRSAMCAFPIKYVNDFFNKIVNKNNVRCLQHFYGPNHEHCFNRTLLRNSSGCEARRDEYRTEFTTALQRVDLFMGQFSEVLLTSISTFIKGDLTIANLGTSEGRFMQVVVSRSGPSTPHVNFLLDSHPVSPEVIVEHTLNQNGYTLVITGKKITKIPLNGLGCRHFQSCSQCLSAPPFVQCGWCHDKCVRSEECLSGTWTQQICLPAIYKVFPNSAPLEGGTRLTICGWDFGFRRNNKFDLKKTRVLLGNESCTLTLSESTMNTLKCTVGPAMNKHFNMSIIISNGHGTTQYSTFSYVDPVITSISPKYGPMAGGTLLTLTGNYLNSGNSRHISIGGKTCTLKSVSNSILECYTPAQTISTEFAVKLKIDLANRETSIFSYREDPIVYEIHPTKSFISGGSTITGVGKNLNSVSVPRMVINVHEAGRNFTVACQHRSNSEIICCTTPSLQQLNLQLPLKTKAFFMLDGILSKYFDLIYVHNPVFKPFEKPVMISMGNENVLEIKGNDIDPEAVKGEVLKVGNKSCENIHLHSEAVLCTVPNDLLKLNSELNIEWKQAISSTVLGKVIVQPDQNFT", "assay": "SPR (Biacore), c-Met-Fc captured by anti-IgG on CM5, single-cycle kinetics", "description": "(§1) As a sensor chip, Sensor Chip CM5 was used and an anti-IgG antibody was immobilized on a measurement lane and a control lane by using Human Antibody Capture Kit.\n(§2) On the measurement lane was immobilized c-Met-Fc, while on the control lane was immobilized Fc protein.\n(§3) As a running buffer, HBS-EP+ buffer containing 0.1% DMSO was used and a dissociation constant of the thioether macrocyclic peptide was calculated at 5 different concentrations by using the single-kinetics method.", "units": {"Kd": "nM", "koff": "s⁻¹", "kon": "M⁻¹ s⁻¹"}}
{"binder": "{CH2CO}-YRQFNRRTHEVWNLDCG (thioether N-16; not fully specified, also called D4-3 peptide; D4-3 Monomer)", "note": "[D4-3]", "Kd": 3.4, "koff": 0.008, "kon": "2.4e+06"}
{"binder": "{CH2CO}-[dY]WYYAWDQTYKAFPCG (thioether N-15, also called D5-4 peptide; D5-4 Monomer)", "note": "[D5-4]", "Kd": 4.6, "koff": 0.021, "kon": "4.5e+06"}
{"binder": "B1", "Kd": 5.2, "koff": 0.0021, "kon": 390000}
{"binder": "{CH2CO}-YISWNEFNSPNWRFITCG (thioether N-17, also called L5-2 peptide; L5-2 Monomer)", "note": "[L5-2]", "Kd": 5.4, "koff": 0.012, "kon": "2.3e+06"}
{"binder": "B2", "binding result": "no binding"}
{"target": "T1, c-Met-Fc chimera protein", "assay": "SPR (Biacore), c-Met-Fc captured by anti-IgG on CM5, single-cycle kinetics", "remark": "another data set of the same source", "description": "as §1, §2, §3", "units": {"Kd": "nM", "koff": "s⁻¹", "kon": "M⁻¹ s⁻¹"}}
{"binder": "{CH2CO}-YRQFNRRTHEVWNLDCG (thioether N-16; not fully specified, also called D4-3 peptide; D4-3 Monomer)", "note": "[D4-3]", "Kd": 3.4, "koff": 0.008, "kon": "2.4e+06"}
{"binder": "B3", "Kd": 0.45, "koff": 0.00091, "kon": "2e+06"}
{"binder": "B4", "Kd": 0.64, "koff": 0.0007, "kon": "1.1e+06"}
{"binder": "B5", "Kd": 0.9, "koff": 0.0011, "kon": "1.2e+06"}
{"binder": "{CH2CO}-[dY]WYYAWDQTYKAFPCG (thioether N-15, also called D5-4 peptide; D5-4 Monomer)", "note": "[D5-4]", "Kd": 4.6, "koff": 0.021, "kon": "4.5e+06"}
{"binder": "B6", "Kd": 12, "koff": 0.00055, "kon": 46000}
{"binder": "B7", "Kd": 4.7, "koff": 0.00054, "kon": 120000}
{"binder": "B8", "Kd": 2.1, "koff": 0.011, "kon": "5.3e+06"}
{"binder": "B1", "Kd": 5.2, "koff": 0.0021, "kon": 390000}
{"binder": "B9", "Kd": 0.81, "koff": 0.0004, "kon": 490000}
{"binder": "{CH2CO}-YISWNEFNSPNWRFITCG (thioether N-17, also called L5-2 peptide; L5-2 Monomer)", "note": "[L5-2]", "Kd": 5.4, "koff": 0.012, "kon": "2.3e+06"}
{"binder": "B10", "binding result": "no binding"}
{"target": "T1, c-Met-Fc chimera protein", "assay": "SPR presumed (Biacore as in 9-1; method not given), c-Met-Fc on chip", "units": {"Kd": "nM", "koff": "s⁻¹", "kon": "M⁻¹ s⁻¹"}}
{"binder": "{CH2CO}-YRQFNRRTHEVWNLDCG (thioether N-16; not fully specified, also called D4-3 peptide; D4-3 Monomer)", "note": "[D4-3]", "Kd": 8.5, "koff": 0.011, "kon": "1.3e+06"}
{"binder": "{CH2CO}-Y[NMeR]QFNRRTHEVWNLDCG (thioether N-16 (inferred))", "note": "[N2, N-methylated D4-3 peptide]", "Kd": 14, "koff": 0.01, "kon": 710000}
{"binder": "{CH2CO}-YR[NMeQ]FNRRTHEVWNLDCG (thioether N-16 (inferred))", "note": "[N3, N-methylated D4-3 peptide]", "Kd": 120, "koff": 0.0031, "kon": 27000}
{"binder": "{CH2CO}-YRQ[NMeF]NRRTHEVWNLDCG (thioether N-16 (inferred))", "note": "[N4, N-methylated D4-3 peptide]", "Kd": 79, "koff": 0.0096, "kon": 120000}
{"binder": "{CH2CO}-YRQF[NMeN]RRTHEVWNLDCG (thioether N-16 (inferred))", "note": "[N5, N-methylated D4-3 peptide]", "Kd": 200, "koff": 0.0039, "kon": 19000}
{"binder": "{CH2CO}-YRQFN[NMeR]RTHEVWNLDCG (thioether N-16)", "note": "[D4-3-N6]", "Kd": 34, "koff": 0.0041, "kon": 120000}
{"binder": "{CH2CO}-YRQFNR[NMeR]THEVWNLDCG (thioether N-16)", "note": "[D4-3-N7]", "Kd": 130}
{"binder": "{CH2CO}-YRQFNRR[NMeT]HEVWNLDCG (thioether N-16)", "note": "[D4-3-N8]", "Kd": 220, "koff": 0.006, "kon": 27000}
{"binder": "{CH2CO}-YRQFNRRTH[NMeE]VWNLDCG (thioether N-16)", "note": "[N10, N-methylated D4-3 peptide]", "Kd": 300, "koff": 0.0075, "kon": 25000}
{"binder": "{CH2CO}-YRQFNRRTHE[NMeV]WNLDCG (thioether N-16)", "note": "[N11, N-methylated D4-3 peptide]", "Kd": 350, "koff": 0.0051, "kon": 15000}
{"binder": "{CH2CO}-YRQFNRRTHEV[NMeW]NLDCG (thioether N-16)", "note": "[N12, N-methylated D4-3 peptide]", "Kd": 160, "koff": 0.0086, "kon": 55000}
{"binder": "{CH2CO}-YRQFNRRTHEVW[NMeN]LDCG (thioether N-16)", "note": "[N13, N-methylated D4-3 peptide]", "Kd": 33, "koff": 0.0026, "kon": 78000}
{"binder": "B11", "Kd": 290, "koff": 0.0059, "kon": 21000}
{"binder": "{CH2CO}-YRQFNRRTHEVWNL[NMeD]CG (thioether N-16 (inferred))", "note": "[N15, N-methylated D4-3 peptide]", "Kd": 160, "koff": 0.046, "kon": 300000}
{"binder": "{CH2CO}-YRQFNRRTHEVWNLD[NMeC]G (thioether N-16 (inferred))", "note": "[N16, N-methylated D4-3 peptide]", "Kd": 10, "koff": 0.01, "kon": 980000}
{"target": "T1, c-Met-Fc chimera protein", "assay": "SPR presumed (Biacore as in 9-1; method not given), c-Met-Fc on chip", "remark": "another data set of the same source", "units": {"Kd": "nM", "koff": "s⁻¹", "kon": "M⁻¹ s⁻¹"}}
{"binder": "{CH2CO}-YRQFNRRTHEVWNLDCG (thioether N-16; not fully specified, also called D4-3 peptide; D4-3 Monomer)", "note": "[D4-3]", "Kd": 8.5, "koff": 0.011, "kon": "1.3e+06"}
{"binder": "B1", "Kd": 5.2, "koff": 0.0021, "kon": 390000}
{"binder": "{CH2CO}-YRQFN[NMeR]RTHEVWNLDCG (thioether N-16)", "note": "[D4-3-N6]", "Kd": 34, "koff": 0.0041, "kon": 120000}
{"binder": "{CH2CO}-YRQFNRRTHEVWNLD[NMeC]G (thioether N-16 (inferred))", "note": "[N16, N-methylated D4-3 peptide]", "Kd": 10, "koff": 0.01, "kon": 980000}
